Experimental data from patent US20130230519A1 (published 2013).
Residue numbers refer to the chain shown, from its start.

B1: DOM7h-14-65 (other)
VL: DIQMTQSPSSLSASVGDRVTITCRASQWIGSQLSWYQQKPGKAPKLLIMWRSALQSGVPSRFSGSGSGTDFTLTISSLQPEDFATYYCAQGLRHPKTFGQGTKVEIKW
notes: pDOM5 myc tag not included
B2: DOM7h-14-74 (other)
VL: B1 VL with A53S, F98Y, Q100K, I106N
notes: pDOM5 myc tag not included
B3: DOM7h-14-100 (other)
VL: B1 VL with A53S, F98Y, I106N
notes: pDOM5 myc tag not included
B4: DOM7h-14-10 (other)
VL: B1 VL with A53S, W108R
notes: Vk dAb (AlbudAb); tag not included here
B5: DOM7h-14-116 (other)
VL: B1 VL with H94Y
notes: pDOM5 myc tag not included
B6: DOM7h-14-76 (other)
VL: B1 VL with A53S, R93K, F98Y
notes: pDOM5 myc tag not included
B7: DOM7h-14-120 (other)
VL: B1 VL with A53S, F98Y, I106N, W108R
B8: DOM7h-14-109 (other)
VL: B1 VL with S12F, A53S, H94K, E105K
notes: pDOM5 myc tag not included
B9: DOM7h-14-101 (other)
VL: B1 VL with S56N
notes: pDOM5 myc tag not included
B10: DOM7h-14-82 (other)
VL: B1 VL with A53S, L92M
notes: pDOM5 myc tag not included
B11: DOM7h-14-56 (other)
VL: B1 VL with K45M, R51S, A53S
notes: pDOM5 myc tag not included
B12: DOM7h-14-123 (other)
VL: B1 VL with A53S, F98Y, Q100K, I106N, W108R
B13: DOM7h-14-119 (other)
VL: B1 VL with A53S, F98Y, W108R
B14: DOM7h-14-122 (other)
VL: B1 VL with A53S, F98Y, Q100K, W108R
B15: DOM7h-14-115 (other)
VL: B1 VL with F98Y
notes: pDOM5 myc tag not included

target: T1, Rat Serum Albumin (rat, UniProt P02770 25-608); experiment: SPR (BIAcore), purified dAb; second protein batch, second analyst
T1 construct: mature; Bought purified serum protein; also called RSA; rat SA
Method: (§1) Unique dAbs were expressed as bacterial supernatants in 0.5 L shake flasks in Onex media at 30° C. for 48 hrs at 250 rpm. dAbs were purified from the culture media by absorption to protein L streamline followed by elution with 100 mM glycine pH2.0.

T1 sequence (P02770 25-608): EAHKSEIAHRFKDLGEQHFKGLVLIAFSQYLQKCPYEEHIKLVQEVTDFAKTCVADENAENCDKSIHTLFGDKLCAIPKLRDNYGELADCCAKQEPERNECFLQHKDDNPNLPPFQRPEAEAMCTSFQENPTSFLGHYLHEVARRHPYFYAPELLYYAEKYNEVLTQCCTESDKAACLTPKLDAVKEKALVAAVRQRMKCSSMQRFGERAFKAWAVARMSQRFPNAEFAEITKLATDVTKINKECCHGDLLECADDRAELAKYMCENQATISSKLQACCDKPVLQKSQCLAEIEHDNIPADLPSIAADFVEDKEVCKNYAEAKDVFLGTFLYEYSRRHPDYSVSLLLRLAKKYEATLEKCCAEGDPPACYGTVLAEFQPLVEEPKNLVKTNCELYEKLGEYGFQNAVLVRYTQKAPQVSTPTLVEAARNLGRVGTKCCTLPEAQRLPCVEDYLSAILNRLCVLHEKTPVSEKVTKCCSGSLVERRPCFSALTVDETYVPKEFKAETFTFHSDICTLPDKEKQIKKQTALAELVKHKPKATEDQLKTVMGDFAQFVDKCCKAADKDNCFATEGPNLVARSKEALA

Row | Kd [nM] | Binder
1 | 25 | B1
2 | 11.6 | B2
3 | 29 | B3

target: T2, Cynomolgus monkey Serum Albumin (Cynomolgus monkey, UniProt A2V9Z4 25-608); experiment: as above
T2 construct: mature; Purified in house; also called CSA; cyno serum albumin
Method: as §1

T2 sequence (A2V9Z4 25-608): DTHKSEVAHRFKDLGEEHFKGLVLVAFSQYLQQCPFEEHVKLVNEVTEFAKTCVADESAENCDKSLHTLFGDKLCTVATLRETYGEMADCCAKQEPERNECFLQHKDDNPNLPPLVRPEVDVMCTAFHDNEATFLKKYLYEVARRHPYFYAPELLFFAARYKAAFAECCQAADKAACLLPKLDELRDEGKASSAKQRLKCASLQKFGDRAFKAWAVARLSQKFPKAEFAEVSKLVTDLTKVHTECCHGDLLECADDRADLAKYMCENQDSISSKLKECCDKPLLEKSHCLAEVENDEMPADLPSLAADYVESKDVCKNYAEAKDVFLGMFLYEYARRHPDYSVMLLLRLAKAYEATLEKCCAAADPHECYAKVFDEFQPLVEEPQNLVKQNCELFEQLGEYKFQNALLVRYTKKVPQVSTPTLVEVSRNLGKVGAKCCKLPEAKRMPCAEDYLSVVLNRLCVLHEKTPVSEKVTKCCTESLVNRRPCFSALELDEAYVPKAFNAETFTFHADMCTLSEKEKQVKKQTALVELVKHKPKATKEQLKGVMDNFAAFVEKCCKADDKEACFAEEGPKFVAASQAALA

Row | Kd [nM] | Binder
4 | 16 | B1
5 | 2.7 | B2
6 | 6.1 | B3

target: T1, Rat Serum Albumin; experiment: SPR (BIAcore), purified dAb
Method: as §1

Row | Kd [nM] | Binder
7 | 9.4 | B4
8 | 8.5 | B5
9 | 4.7 | B6
10 | 2.7 | B7
11 | 15.4 | B8
12 | 5.8 | B9
13 | 11.8 | B10
14 | 4.3 | B2
15 | 3.4 | B11
16 | 3.7 | B3
17 | 5.1 | B12
18 | 6.2 | B13
19 | 7.8 | B14

target: T3, mouse serum albumin (mouse, UniProt P07724 25-608); experiment: SPR (BIAcore), purified dAb
T3 construct: mature; Bought purified serum protein; also called MSA; mouse SA
Method: as §1

Row | Kd [nM] | Binder
20 | 30.1 | B4
21 | 19.1 | B5
22 | 11.5 | B6
23 | 58.1 | B8
24 | 16.8 | B9
25 | 32.3 | B10
26 | 15.3 | B1
27 | 23.5 | B2
28 | 6.3 | B11
29 | 8 | B3
30 | 9.8 | B15

target: T2, Cynomolgus monkey Serum Albumin; experiment: SPR (BIAcore), purified dAb
Method: as §1

Row | Kd [nM] | Binder
31 | 22.8 | B5
32 | 19.9 | B6
33 | 3.7 | B7
34 | 17.6 | B8
35 | 11.6 | B9
36 | 170 | B10
37 | 6.3 | B2
38 | 18.7 | B11
39 | 6.4 | B3
40 | 8 | B12

target: T4, Human Serum Albumin (human, UniProt P02768 25-609); experiment: SPR (BIAcore), purified dAb
T4 construct: mature; Bought purified serum protein; Immobilised on CM5 chips; also called HSA; human SA
Method: as §1

T4 sequence (P02768 25-609): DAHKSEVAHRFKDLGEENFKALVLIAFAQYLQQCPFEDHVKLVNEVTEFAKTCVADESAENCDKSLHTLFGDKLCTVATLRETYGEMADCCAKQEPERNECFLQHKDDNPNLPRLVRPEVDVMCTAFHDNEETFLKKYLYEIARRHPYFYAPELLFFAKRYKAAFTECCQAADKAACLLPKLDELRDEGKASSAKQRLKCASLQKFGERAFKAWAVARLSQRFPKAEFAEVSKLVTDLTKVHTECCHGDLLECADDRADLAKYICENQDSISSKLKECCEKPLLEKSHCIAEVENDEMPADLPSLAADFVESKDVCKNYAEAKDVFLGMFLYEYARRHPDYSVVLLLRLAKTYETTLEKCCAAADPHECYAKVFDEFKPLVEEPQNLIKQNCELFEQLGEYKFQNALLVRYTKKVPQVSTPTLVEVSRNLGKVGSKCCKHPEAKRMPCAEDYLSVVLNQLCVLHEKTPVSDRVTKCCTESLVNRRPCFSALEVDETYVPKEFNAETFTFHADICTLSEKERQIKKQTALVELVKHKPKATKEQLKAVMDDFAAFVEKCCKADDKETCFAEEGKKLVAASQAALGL

Row | Kd [nM] | Binder
41 | 7 | B5
42 | 6.3 | B6
43 | 14 | B7
44 | 108 | B8
45 | 8.4 | B9
46 | 15.4 | B10
47 | 4.8 | B2
48 | 11.1 | B11
49 | 4.5 | B3
50 | 12 | B12
